# Experimental data published in PMC2721272 (Journal of molecular biology, 2009).
# B1: Marasmius oreades agglutinin (natural protein, UniProt Q8X123 1-293, looked up)
# chain: MSLRRGIYHIENAGVPSAIDLKDGSSSDGTPIVGWQFTPDTINWHQLWLAEPIPNVADTFTLCNLFSGTYMDLYNGSSEAGTAVNGWQGTAFTTNPHQLWTIKKSSDGTSYKIQNYGSKTFVDLVNGDSSDGAKIAGWTGTWDEGNPHQKWYFNRMSVSSAEAQAAIARNPHIHGTYRGYILDGEYLVLPNATFTQIWKDSGLPGSKWREQIYDCDDFAIAMKAAVGKWGADSWKANGFAIFCGVMLGVNKAGDAAHAYNFTLTKDHADIVFFEPQNGGYLNDIGYDSYMAFY
# modifications: side chain of Cys215 oxidized in about 50% of the molecules in the crystal
# Target: the molecule itself
# Assay: crystal structure
protein,measurement,value
B1,stoichiometry N,2
